# Numbering of substitutions follows the chain as printed.
# Assays:
# Experiment in all cases: holdup assay
# Design in all cases: key: below the threshold = too weak to quantify, mostly under pKd 3.1 to 4
# Conditions in all cases: plain residues with an end cap or a label only (N-terminal biotin on a linker: ado-ado)
# [1] = biological target: T1, ARHGAP21, Q5T5U3
# T1 sequence (Q5T5U3 45-169, limits assumed, looked up): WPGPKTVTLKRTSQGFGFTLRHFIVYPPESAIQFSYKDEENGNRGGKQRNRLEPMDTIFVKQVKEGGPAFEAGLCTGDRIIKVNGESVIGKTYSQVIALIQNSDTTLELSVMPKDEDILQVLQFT
# [2] = biological target: FRMPD2_2, Q68DX3
# [3] = biological target: Inadl_6, Q8NI35
# [4] = biological target: LNX1_3, Q8TBB1
# [5] = biological target: IL16_4, Q14005
# [6] = biological target: Inadl_3, Q8NI35
# [7] = biological target: T2, FRMPD1, Q5SYB0
# T2 sequence (Q5SYB0 52-145, limits assumed, looked up): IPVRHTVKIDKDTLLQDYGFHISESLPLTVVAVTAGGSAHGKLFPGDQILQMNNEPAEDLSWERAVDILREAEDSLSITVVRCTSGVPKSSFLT
# [8] = biological target: Inadl_1, Q8NI35
# [9] = biological target: T3, LIN7B, Q9HAP6
# T3 sequence (Q9HAP6 88-185, limits assumed, looked up): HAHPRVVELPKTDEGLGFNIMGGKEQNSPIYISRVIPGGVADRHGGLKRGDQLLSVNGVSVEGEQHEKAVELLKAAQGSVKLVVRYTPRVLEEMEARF
# [10] = biological target: T4, LIN7C, Q9NUP9
# T4 sequence (Q9NUP9 88-185, limits assumed, looked up): T3 sequence (Q9HAP6 88-185, limits assumed, looked up) with A2S, D13E, V35I, V40I, Q65H, S79K, R89K, A96S
# [11] = biological target: MAGI2_5, Q86UL8
# [12] = biological target: MAST2, Q6P0Q8
# [13] = biological target: T5, PDZD7_3, Q9H5P4
# T5 sequence (Q9H5P4 857-944, limits assumed, looked up): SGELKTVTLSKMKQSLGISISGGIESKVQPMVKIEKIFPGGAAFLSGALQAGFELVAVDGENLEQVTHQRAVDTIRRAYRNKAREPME
# [14] = biological target: Inadl_8, Q8NI35
# [15] = biological target: NHERF4_1, Q86UT5-2
# [16] = biological target: T6, CARD11, Q9BXL7
# T6 sequence (Q9BXL7 662-765, limits assumed, looked up): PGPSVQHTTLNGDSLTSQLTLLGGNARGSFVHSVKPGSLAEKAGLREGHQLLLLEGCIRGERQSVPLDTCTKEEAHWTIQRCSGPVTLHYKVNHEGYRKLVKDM
# [17] = biological target: T7, PDZD2_2, O15018
# T7 sequence (O15018 329-429, limits assumed, looked up): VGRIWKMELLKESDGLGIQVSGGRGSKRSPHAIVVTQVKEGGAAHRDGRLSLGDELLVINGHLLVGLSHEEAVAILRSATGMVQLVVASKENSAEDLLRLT
# [18] = biological target: T8, HTRA4, P83105
# T8 sequence (P83105 378-476, limits assumed, looked up): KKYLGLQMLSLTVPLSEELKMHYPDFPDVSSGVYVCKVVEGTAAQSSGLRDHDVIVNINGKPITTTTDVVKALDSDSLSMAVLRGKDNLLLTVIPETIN
# [19] = biological target: T9, MPP2, Q14168
# T9 sequence (Q14168 180-250, limits assumed, looked up): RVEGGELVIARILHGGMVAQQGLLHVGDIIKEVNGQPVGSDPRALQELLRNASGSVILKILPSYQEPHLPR
# [20] = biological target: T10, GRIP1_4, Q9Y3R0
# T10 sequence (Q9Y3R0 467-571, limits assumed, looked up): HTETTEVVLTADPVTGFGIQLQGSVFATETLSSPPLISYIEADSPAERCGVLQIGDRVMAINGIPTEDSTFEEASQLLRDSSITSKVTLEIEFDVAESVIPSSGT
# [21] = biological target: Inadl_9, Q8NI35
# [22] = biological target: FRMPD2_1, Q68DX3
# [23] = biological target: AHNAK1, Q09666
# [24] = biological target: T11, LNX2_3, Q8N448
# T11 sequence (Q8N448 463-564, limits assumed, looked up): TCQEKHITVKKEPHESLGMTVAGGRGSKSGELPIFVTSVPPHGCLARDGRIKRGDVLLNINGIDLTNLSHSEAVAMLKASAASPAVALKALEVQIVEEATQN
# [25] = biological target: GRID2IP_1, A4D2P6
# [26] = biological target: NHERF4_4, Q86UT5
# [27] = biological target: DLG4_2, P78352
# Sequence of DLG4_2, P78352 (P78352 155-259): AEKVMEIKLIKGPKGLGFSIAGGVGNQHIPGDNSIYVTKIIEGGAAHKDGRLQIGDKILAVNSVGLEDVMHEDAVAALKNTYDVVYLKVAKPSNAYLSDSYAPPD
# Sequence of Inadl_9, Q8NI35 (Q8NI35 1530-1615): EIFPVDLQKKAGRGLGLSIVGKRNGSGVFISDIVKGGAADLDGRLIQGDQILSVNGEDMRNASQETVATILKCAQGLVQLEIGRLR
# Sequence of MAGI2_5, Q86UL8 (Q86UL8 915-1017): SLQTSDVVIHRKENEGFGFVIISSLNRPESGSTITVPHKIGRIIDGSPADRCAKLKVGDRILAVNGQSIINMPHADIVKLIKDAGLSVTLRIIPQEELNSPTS
# Sequence of NHERF4_4, Q86UT5 (Q86UT5 464-550): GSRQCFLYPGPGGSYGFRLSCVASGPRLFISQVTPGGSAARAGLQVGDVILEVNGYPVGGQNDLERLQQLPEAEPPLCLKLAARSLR
# Sequence of Inadl_3, Q8NI35 (Q8NI35 359-469): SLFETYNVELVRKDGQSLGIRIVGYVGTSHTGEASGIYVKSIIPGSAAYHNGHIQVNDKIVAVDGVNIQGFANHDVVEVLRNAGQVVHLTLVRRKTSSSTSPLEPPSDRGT
# Sequence of FRMPD2_1, Q68DX3 (Q68DX3 770-861): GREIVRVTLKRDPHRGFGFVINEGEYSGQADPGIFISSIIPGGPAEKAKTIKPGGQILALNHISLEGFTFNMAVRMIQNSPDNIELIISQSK
# Sequence of LNX1_3, Q8TBB1 (Q8TBB1 500-596): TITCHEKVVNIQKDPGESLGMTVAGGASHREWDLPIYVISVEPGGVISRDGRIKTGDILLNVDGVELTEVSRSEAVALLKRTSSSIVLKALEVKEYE
# Sequence of AHNAK1, Q09666 (Q09666 4-100): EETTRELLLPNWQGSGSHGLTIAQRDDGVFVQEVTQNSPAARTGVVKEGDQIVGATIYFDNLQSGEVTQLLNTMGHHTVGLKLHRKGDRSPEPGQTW
# Sequence of NHERF4_1, Q86UT5-2 (Q86UT5 other isoform, or with tags, fused parts or gaps): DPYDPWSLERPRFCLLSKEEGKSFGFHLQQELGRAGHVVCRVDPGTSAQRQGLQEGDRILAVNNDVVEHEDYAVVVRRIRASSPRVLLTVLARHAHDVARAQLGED
# Sequence of Inadl_1, Q8NI35 (Q8NI35 113-229): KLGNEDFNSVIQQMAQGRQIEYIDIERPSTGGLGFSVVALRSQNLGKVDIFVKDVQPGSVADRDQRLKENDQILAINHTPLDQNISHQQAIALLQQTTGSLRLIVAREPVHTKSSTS
# Sequence of FRMPD2_2, Q68DX3 (Q68DX3 944-1038): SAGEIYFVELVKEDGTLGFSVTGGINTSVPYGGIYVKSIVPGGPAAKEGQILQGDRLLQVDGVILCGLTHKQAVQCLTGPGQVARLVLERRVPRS
# Sequence of MAST2, Q6P0Q8 (Q6P0Q8 1099-1202): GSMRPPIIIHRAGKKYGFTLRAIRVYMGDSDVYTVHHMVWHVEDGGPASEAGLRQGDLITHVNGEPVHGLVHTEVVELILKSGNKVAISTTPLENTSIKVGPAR
# Sequence of Inadl_6, Q8NI35 (Q8NI35 1058-1167): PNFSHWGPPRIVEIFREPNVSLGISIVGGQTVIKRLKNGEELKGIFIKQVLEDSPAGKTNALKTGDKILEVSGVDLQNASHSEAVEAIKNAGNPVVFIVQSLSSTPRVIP
# Sequence of IL16_4, Q14005 (Q14005 1229-1329): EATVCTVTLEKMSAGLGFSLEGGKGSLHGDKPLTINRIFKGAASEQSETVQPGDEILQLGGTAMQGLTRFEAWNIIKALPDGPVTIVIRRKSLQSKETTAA
# Sequence of GRID2IP_1, A4D2P6 (A4D2P6 1-87): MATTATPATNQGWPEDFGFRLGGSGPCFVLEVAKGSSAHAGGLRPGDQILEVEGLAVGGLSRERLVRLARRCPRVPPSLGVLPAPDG
# Sequence of Inadl_8, Q8NI35 (Q8NI35 1425-1530): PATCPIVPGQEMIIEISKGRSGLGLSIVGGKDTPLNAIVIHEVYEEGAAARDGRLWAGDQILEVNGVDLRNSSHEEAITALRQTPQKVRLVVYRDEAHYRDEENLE
Binder,pKd [1],pKd [2],pKd [3],pKd [4],pKd [5],pKd [6],pKd [7],pKd [8],pKd [9],pKd [10],pKd [11],pKd [12],pKd [13],pKd [14],pKd [15],pKd [16],pKd [17],pKd [18],pKd [19],pKd [20],other results
"IQISELETNV [SLC1A7, O00341]",3.98,5.03,4.04,below the threshold,below the threshold,4,below the threshold,below the threshold,below the threshold,3.97,4.11,5.61,4.85,below the threshold,below the threshold,below the threshold,4.97,3.9,below the threshold,below the threshold,pKd [21]: below the threshold; pKd [22]: below the threshold; pKd [23]: below the threshold; pKd [24]: below the threshold; pKd [25]: below the threshold; pKd [26]: 3.85; pKd [27]: 4.67
"TNSKQGETTV [FZD1, Q9UP38]",3.93,below the threshold,below the threshold,below the threshold,3.68,below the threshold,below the threshold,below the threshold,below the threshold,4.45,below the threshold,4.88,4.53,below the threshold,below the threshold,below the threshold,3.93,3.79,below the threshold,below the threshold,pKd [21]: 3.57; pKd [22]: 3.79; pKd [23]: below the threshold; pKd [24]: below the threshold; pKd [25]: 3.66; pKd [26]: 3.95; pKd [27]: 4.94
"TFSRRPKTRV [CD226, Q15762]",4.06,below the threshold,below the threshold,3.5,below the threshold,below the threshold,below the threshold,below the threshold,below the threshold,below the threshold,below the threshold,4.1,4.5,4.6,below the threshold,below the threshold,below the threshold,4.01,below the threshold,below the threshold,pKd [21]: below the threshold; pKd [22]: 3.73; pKd [23]: below the threshold; pKd [24]: 3.61; pKd [25]: below the threshold; pKd [26]: below the threshold; pKd [27]: 3.56
"AKADAQESRL [PLCB2, Q00722]",below the threshold,below the threshold,3.48,below the threshold,3.61,below the threshold,below the threshold,below the threshold,below the threshold,4.28,3.59,5.82,4.29,below the threshold,3.84,below the threshold,below the threshold,3.85,below the threshold,below the threshold,pKd [21]: below the threshold; pKd [22]: below the threshold; pKd [23]: below the threshold; pKd [24]: below the threshold; pKd [25]: below the threshold; pKd [26]: below the threshold; pKd [27]: below the threshold
"THHRKIHTRV [ZNF599, Q96NL3]",4.01,3.52,below the threshold,below the threshold,below the threshold,below the threshold,below the threshold,below the threshold,below the threshold,below the threshold,3.75,5.03,4.53,4.38,3.72,below the threshold,below the threshold,below the threshold,below the threshold,below the threshold,pKd [21]: 3.58; pKd [22]: 3.89; pKd [23]: below the threshold; pKd [24]: 3.51; pKd [25]: 3.6; pKd [26]: below the threshold; pKd [27]: 5.64
